# Measured values: the DeepSol protein solubility set
# Assay: soluble on expression in E. coli; label from the status in PepcDB or PDB records
row,Sequence,soluble on expression in E. coli
1,DFEIMAPVGSRESLAAAIQAGADSIYFGIESLNMRARSASTFTVNDLREIAQICDKHGIKSYLTINTIIYDEDIALMRTIVDAAKEAGISAVIAADVAVMAYCCEVGQEVHLSTQLNISNAGALKFYARFADVVVLARELNLKQVRVIYDTIQKEQIKGPNGELVRIEMFCHGALCMAVSGKCYLSLHEMNASANRGACMQICRRAYDVKDKESDIELEVDNKYIMSPKDLKTIHFMDEMIEAGVRVFKIEGRARGPEYVRTVVECYKEAICSYLEGTFTEEKKQAWDERLKTVFNRGFWNGYYLGQRLGEWSKNYGSEATERKVYVGKGIKYFSNIGVAEFLVEAAEMKVGDKLLITGPTTGAVFLTLDEARVDLKPVDVVRKGQHVSFKVPDKVRPSDKLYKLVSPEDLK,not soluble
2,MGSDKIHHHHHHMQSKSDIQRLLTIMERLRDPQTGCPWDKAQSYQTIVPFTLEEAFEVADTIERGALDELPGELGDLLFQVIFYCQLGKEQGRFDFDQVVEKICTKLTERHPHVFGEMTQASSESVRETWESIKAKERKGRSLHSVLDDIPRSLPALTRAAKVQRRVATVGFDWNDLGPVVAKIHEEIDEVMVEVAAQDRDKMEDELGDLLFAVVNLARHLKLDPEQALRRATNKFEHRFRGVEALAAQSGKAMQEHSLTELDAYWEQVKRNDPLKG,not soluble
3,GQTTIQVRVPYRVVGLVVGPKGATIKRIQQRTHTYIVTPGRDKEPVFAVTGMPENVDRAREEIEAHITLR,soluble
4,GAKNYYDITLALAGICQSARLVQQLAHQGHCDADALHVSLNSIIDMNPSSTLAVFGGSEANLRVGLETLLGVLNASSRQGLNAELTRYTLSLMVLERKLSSAKGALDTLGNRINGLQRQLEHFDLQSETLMSAMAAIYVDVISPLGPRIQVTGSPAVLQSPQVQAKVRATLLAGIRAAVLWHQVGGGRLQLMFSRNRLTTQAKQILAHLTPEL,soluble
5,MGSDKIHHHHHHMSREILRVENLVKHFPIRAGVFKRIVGWVKAVDGVSFSINEGETFGLVGESGCGKTTIGMTLLRLYEPTSGRIIVDNEDTTYYFMPRSKAKKYIKQTYLSRFVNMKESDVEKLEGVDREYARIFFEEAKGSPKKFMSILLDDLPEKRKKFRREMQIVFQDPYSSLNPRLRVKSIVGEGIVTHRIARGKEVEKRIKEILEDVGIPSAYVYRFPHEFSGGQRQRIGIARALALEPKLVVADEAVAALDVSIRSQIINLMEDLQREHKLTYIFISHDLAVVKHISDRIGVMYLGKMVELAPKKDLFEKPLHPYTVALMSAIPVPDPTKKRERIILKGDVPSPINPPSGCRFHTRCPIAKEICSKEEPAFREVEEGHFVACHFPGELR,not soluble
6,MGSSHHHHHHSSGRENLYFQGMADQDQLKALRLRIDSLDEKLLELISERARCAQDVARVKTQTLGEGEAPVFYRPEREAWVLKHIMQLNKGPLDNEEVARLFREIMSSCLALEQPLKVAYLGPEGTFTQAAALKHFGNAVISTPMAAIDEVFREVAAGAVNFGVVPVENSTEGAVNHTLDSFLEHDMVICGEVELRIHHHLLVGETTKTDNITRIYSHAQSLAQCRKWLDSHYPSVERVAVSSNADAAKRVKSEWNSAAIAGDMAASLYDLSKLHEKIEDRPDNSTRFLIIGNQEVPPTGDDKTSIIVSMRNKPGALHELLVPFHNNGIDLTRIETRPSRSGKWTYVFFIDFVGHHKEPLIKDVLEKIGQEAVALKVLGSYPKAVL,soluble
7,AHHHHHHGSEDIVEALKLAVTNLPEDVALALKNAYEREDYEIAKYNLEIMLRAVKTSKKEKVPLCQDTGTPIFFVETDGTWNVKEIYETIAEAVKRATDEIPLRPNAICLLSGKVVGNVPEIHIEPGKRNRISILIKGGGSENCSALFPLTPGDWFEGVKKKIIDHIRSCGGKPCPPIIVGIGIASPAERAITLAKKSLFRKIGERHEKLGWLEEEILEEINFLDIGPMGLGGKTTALDVKIEVGERHPASFIVGIAIQCWAHRRAFIEEKEDGEVVIWQ,soluble
8,MKRCLAILAFAALLFPALPAYSAPARQPSSNTPPPDIVMHPEYARTIGRLAYVWGWPMVNMLNRNARITKAPHPGLLGGILPAAPRGQVGMLHDYILPAETFVTCPNQDVVYGLGFFSLDTEPVIAQVPDFGDRFWVYALYDHRTNQFGELGKPYRSKPGFYLLVGPNWKGQKPAGVQAIIRSPTALANAIPRIFMDDTDEDRQAIQKKINQVVFYPLKDFDGKMKSLDWQSTADIPNPGADSANAGETRWVVPEEFFNQFGQVLDMVPPLPGEEAMYVQFRSMMDAAAKDPAIKNALVEVAKETEEQVIAPFFQWKHNGKPAGNNWNRSVNNAQTGLDYFNRTGTAKSNMFDNRPNETQYFYTDFDSTGAVLDGGKRYEITFASGQLPPVKGFWSLTLYNKHHLFSPNDLNRYSLGTKNKNLVRGPDGSLTIHVGPTSPGKDKEANWLPSPREPISLYIRAYWGEQAILDGTWKPPAVKKIELEHHHHHH,not soluble
9,MAAAPPSADPLDKALIVDVDQWIEQLYECKPLSENQVKTLCEKAKEILEKEPNVQEVRCPVTVCGDVHGQFHDLMELFKMGGKSPDTNYLFMGDYVDRGYYSVETVSLLVCLKIRYKDRVTLLRGNHESRQITQVYGFYDECLRKYGNSNVWKYFTDLFDCFPLTALVDGQIFCLHGGLSPSIDTLDHIRALDRIQEVPHEGPMCDLLWSDPDDRGGWGISPRGAGYTFGQDISETFNHSNGLTLISRAHQLVMEGYNWSHDRNVVTVFSAPNYCYRCGNQAAMVELDDDLKYSFLQFDPAPRRGEPHVTRRTPDYFL,not soluble
10,MLYIPQFSIYFCLGYLLLFCKISNAVKQSWEINQELITEANKEHTVFGDMLLTPAQLIRYENSKDSDLSIRGVSIKGSSMNRWSNNIVPYVISPQYSPAQKQILVSSLRYFERVSCFKFVERTTQNDYLFIVPLDGCYSYVGKIGGRQTLSLAADCIADYIIWHEMMHAIGFEHEHQRPDRDSFIRVDYANVIPGQMINFDKLKTSHVEYPDIYDFKSIMHYDGYAFGRVDTARRVRLATMTPLKPGVTLEDNMKFTATDIEKLNRLGQCGARGGQYSNQGVVASTCQDVATAVSCEGNRRRGMCKNPFYKQMMIKSCQKTCRLCSYTRMIDEDDDLTPNTTVKSVKCEDKHPRCDIYSHNGFCTLPFYDDVRYQLCAKTCNLC,not soluble
11,MNQSADAKPPKPDGRVTRSVTVRKLGPGANKEKQESDNSQKKKTVNAAAQKADTSSKRNSGNPQKPKKPKHEAIKVSTRRLSASSKPPPPAPQNVPKMNSFVGNGNTRMIMVQTTPQAKKLEAEMKLRMQNKGESPEASLLVLESRTPEPTVQQVLEELQNDVVNPKSSTTPEGYSFELRNLKTPEIPAMPTPLACSPAAARNSPVVKKIQNHVPNVTLVPSEPREPSLRKLHLGTLKLKFLAFPLTTGFKKLQKLQDPLARIKLATEKLKERRAQLDTQKKHTMFLPEAFIGPHFNETIASGFYALFNASHFQVHYNSEGKRLGSGTMCVLKNQMNGARDWFAGNTWRAVKMMYMRTRDAEKHKNSEVKLFVEKLPDWSTEQLEEKLRNEFKLSDFQLLYDYKGNNLRSAIVLLKYPDAINLCNSIRSNPTVFGKEWHPRVFEVLDVAVQPPIDK,not soluble
12,MEFMSAPANAVAADDATAIALKYNQDATKSERVAAARPGLPPEEQHCANCQFMQADAAGATDEWKGCQLFPGKLINVNGWSASWTLKAG,soluble
13,YLYVYKGVYATDEDVPVNPLTGERLRMGGNTSTQAYFKAGDPIWVDVNGDYIIDEKDKVIVGNSQPRMTGGISINLRYKAFSINTNCSFTLRRDIINKALADRFRAYGTPVAGKVNLTGSGALTPIEAYNFWTEDNIYAQYPNPFDYTRSSIIQPFRYDQTLFMEDGSYFKINGISVAYTIPKKMLDFFRISRCQLNFSMNNIYTFSKYSGINPENVNNLGYDTSGGYPNGRTVTFGVSMDF,not soluble
